We go through one substance from patent publication US20240317872A1.

For assay [1], the target named is human 4-1BB (human) (UniProt Q07011). The experiment in a line: flow cytometry on CHO-K1 cells expressing 4-1BB.
Assay [2] has the same target. Kind of assay: cell-based or functional assay.

pEC50: −log10 of the molar value.

Sequence of human 4-1BB (human) (Q07011 24-255): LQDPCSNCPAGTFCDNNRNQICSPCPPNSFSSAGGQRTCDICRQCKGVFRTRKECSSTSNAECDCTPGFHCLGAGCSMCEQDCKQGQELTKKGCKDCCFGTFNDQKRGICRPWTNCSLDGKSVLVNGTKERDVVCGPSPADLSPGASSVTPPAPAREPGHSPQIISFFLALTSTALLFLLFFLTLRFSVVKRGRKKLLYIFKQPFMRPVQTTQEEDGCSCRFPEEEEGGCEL

Regarding WBP342-BMK3.hIgG4 (antibody), in assay [1], the pEC50 (commonly the negative decadic logarithm of the EC50, by convention in mol/L) was 9.91 and the Top (MFI) turned out to be 1120 MFI. For the same substance, in assay [2], the reporter gene assay (NFkB luciferase), EC50 is 0.33 nM and the reporter gene assay (NFkB luciferase), Top (RLU) was determined as 1.09e+06 RLU.
